T1: FcγRIIb (human, UniProt P31994 43-217)
T1 construct: extracellular domain; also called FcgRIIb
T1 sequence (looked up): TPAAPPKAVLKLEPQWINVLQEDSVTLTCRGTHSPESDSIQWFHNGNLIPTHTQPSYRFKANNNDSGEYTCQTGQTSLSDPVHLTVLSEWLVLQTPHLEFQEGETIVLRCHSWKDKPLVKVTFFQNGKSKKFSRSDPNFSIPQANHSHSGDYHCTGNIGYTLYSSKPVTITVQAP

T2: FcγRIIa R (human, UniProt P12318 34-217)
T2 construct: extracellular domain; also called FcgRIIa R; FcγRIIa type R
T2 sequence (looked up): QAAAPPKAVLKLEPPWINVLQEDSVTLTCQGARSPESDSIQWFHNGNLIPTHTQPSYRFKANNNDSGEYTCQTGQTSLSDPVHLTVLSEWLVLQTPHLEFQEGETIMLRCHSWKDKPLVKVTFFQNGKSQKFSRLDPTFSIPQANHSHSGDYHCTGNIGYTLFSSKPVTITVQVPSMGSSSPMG

B1: GpH7-A5/GpH7-B3 variant N325_05P/GpL16-k0 (antibody, human IgG1, kappa)
heavy 1: not shown
heavy 2: not shown
light: DIVMTQSPLSLPVTPGEPASISCQASESLVHSNRNTYLHWYLQKPGQSPQLLIYKVSNRFSGVPDRFSGSGSGTDFTLKISRVEAEDVGVYYCSQNTHVPPTFGQGTKVEIERTVAAPSVFIFPPSDEQLKSGTASVVCLLNNFYPREAKVQWKVDNALQSGNSQESVTEQDSKDSTYSLSSTLTLSKADYEKHKVYACEVTHQGLSSPVTKSFNRGEC
notes: He Ab; IgG1; mutation in one H chain only
B2: GpH7-A5/GpH7-B3 variant N325_11K/GpL16-k0 (antibody, human IgG1, kappa)
heavy 1: not shown
heavy 2: not shown
light: DIVMTQSPLSLPVTPGEPASISCQASESLVHSNRNTYLHWYLQKPGQSPQLLIYKVSNRFSGVPDRFSGSGSGTDFTLKISRVEAEDVGVYYCSQNTHVPPTFGQGTKVEIERTVAAPSVFIFPPSDEQLKSGTASVVCLLNNFYPREAKVQWKVDNALQSGNSQESVTEQDSKDSTYSLSSTLTLSKADYEKHKVYACEVTHQGLSSPVTKSFNRGEC
notes: as for B1
B3: GpH7-A5/GpH7-B3 variant N325_12R/GpL16-k0 (antibody, human IgG1, kappa)
heavy 1: not shown
heavy 2: not shown
light: DIVMTQSPLSLPVTPGEPASISCQASESLVHSNRNTYLHWYLQKPGQSPQLLIYKVSNRFSGVPDRFSGSGSGTDFTLKISRVEAEDVGVYYCSQNTHVPPTFGQGTKVEIERTVAAPSVFIFPPSDEQLKSGTASVVCLLNNFYPREAKVQWKVDNALQSGNSQESVTEQDSKDSTYSLSSTLTLSKADYEKHKVYACEVTHQGLSSPVTKSFNRGEC
notes: as for B1
B4: GpH7-A5/GpH7-B3 variant N325_16H/GpL16-k0 (antibody, human IgG1, kappa)
heavy 1: not shown
heavy 2: not shown
light: DIVMTQSPLSLPVTPGEPASISCQASESLVHSNRNTYLHWYLQKPGQSPQLLIYKVSNRFSGVPDRFSGSGSGTDFTLKISRVEAEDVGVYYCSQNTHVPPTFGQGTKVEIERTVAAPSVFIFPPSDEQLKSGTASVVCLLNNFYPREAKVQWKVDNALQSGNSQESVTEQDSKDSTYSLSSTLTLSKADYEKHKVYACEVTHQGLSSPVTKSFNRGEC
notes: as for B1
B5: GpH7-A5/GpH7-B3 variant N325_19Q/GpL16-k0 (antibody, human IgG1, kappa)
heavy 1: not shown
heavy 2: not shown
light: DIVMTQSPLSLPVTPGEPASISCQASESLVHSNRNTYLHWYLQKPGQSPQLLIYKVSNRFSGVPDRFSGSGSGTDFTLKISRVEAEDVGVYYCSQNTHVPPTFGQGTKVEIERTVAAPSVFIFPPSDEQLKSGTASVVCLLNNFYPREAKVQWKVDNALQSGNSQESVTEQDSKDSTYSLSSTLTLSKADYEKHKVYACEVTHQGLSSPVTKSFNRGEC
notes: as for B1
B6: GpH7-A5/GpH7-B3 variant P329_02A/GpL16-k0 (antibody, human IgG1, kappa)
heavy 1: not shown
heavy 2: not shown
light: DIVMTQSPLSLPVTPGEPASISCQASESLVHSNRNTYLHWYLQKPGQSPQLLIYKVSNRFSGVPDRFSGSGSGTDFTLKISRVEAEDVGVYYCSQNTHVPPTFGQGTKVEIERTVAAPSVFIFPPSDEQLKSGTASVVCLLNNFYPREAKVQWKVDNALQSGNSQESVTEQDSKDSTYSLSSTLTLSKADYEKHKVYACEVTHQGLSSPVTKSFNRGEC
notes: as for B1
B7: GpH7-A5/GpH7-B3 variant P329_03V/GpL16-k0 (antibody, human IgG1, kappa)
heavy 1: not shown
heavy 2: not shown
light: DIVMTQSPLSLPVTPGEPASISCQASESLVHSNRNTYLHWYLQKPGQSPQLLIYKVSNRFSGVPDRFSGSGSGTDFTLKISRVEAEDVGVYYCSQNTHVPPTFGQGTKVEIERTVAAPSVFIFPPSDEQLKSGTASVVCLLNNFYPREAKVQWKVDNALQSGNSQESVTEQDSKDSTYSLSSTLTLSKADYEKHKVYACEVTHQGLSSPVTKSFNRGEC
notes: as for B1
B8: GpH7-A5/GpH7-B3 variant P329_04F/GpL16-k0 (antibody, human IgG1, kappa)
heavy 1: not shown
heavy 2: not shown
light: DIVMTQSPLSLPVTPGEPASISCQASESLVHSNRNTYLHWYLQKPGQSPQLLIYKVSNRFSGVPDRFSGSGSGTDFTLKISRVEAEDVGVYYCSQNTHVPPTFGQGTKVEIERTVAAPSVFIFPPSDEQLKSGTASVVCLLNNFYPREAKVQWKVDNALQSGNSQESVTEQDSKDSTYSLSSTLTLSKADYEKHKVYACEVTHQGLSSPVTKSFNRGEC
notes: as for B1
B9: GpH7-A5/GpH7-B3 variant P329_06M/GpL16-k0 (antibody, human IgG1, kappa)
heavy 1: not shown
heavy 2: not shown
light: DIVMTQSPLSLPVTPGEPASISCQASESLVHSNRNTYLHWYLQKPGQSPQLLIYKVSNRFSGVPDRFSGSGSGTDFTLKISRVEAEDVGVYYCSQNTHVPPTFGQGTKVEIERTVAAPSVFIFPPSDEQLKSGTASVVCLLNNFYPREAKVQWKVDNALQSGNSQESVTEQDSKDSTYSLSSTLTLSKADYEKHKVYACEVTHQGLSSPVTKSFNRGEC
notes: as for B1
B10: GpH7-A5/GpH7-B3 variant P329_07I/GpL16-k0 (antibody, human IgG1, kappa)
heavy 1: not shown
heavy 2: not shown
light: DIVMTQSPLSLPVTPGEPASISCQASESLVHSNRNTYLHWYLQKPGQSPQLLIYKVSNRFSGVPDRFSGSGSGTDFTLKISRVEAEDVGVYYCSQNTHVPPTFGQGTKVEIERTVAAPSVFIFPPSDEQLKSGTASVVCLLNNFYPREAKVQWKVDNALQSGNSQESVTEQDSKDSTYSLSSTLTLSKADYEKHKVYACEVTHQGLSSPVTKSFNRGEC
notes: as for B1
B11: GpH7-A5/GpH7-B3 variant P329_08L/GpL16-k0 (antibody, human IgG1, kappa)
heavy 1: not shown
heavy 2: not shown
light: DIVMTQSPLSLPVTPGEPASISCQASESLVHSNRNTYLHWYLQKPGQSPQLLIYKVSNRFSGVPDRFSGSGSGTDFTLKISRVEAEDVGVYYCSQNTHVPPTFGQGTKVEIERTVAAPSVFIFPPSDEQLKSGTASVVCLLNNFYPREAKVQWKVDNALQSGNSQESVTEQDSKDSTYSLSSTLTLSKADYEKHKVYACEVTHQGLSSPVTKSFNRGEC
notes: as for B1
B12: GpH7-A5/GpH7-B3 variant P329_09D/GpL16-k0 (antibody, human IgG1, kappa)
heavy 1: not shown
heavy 2: not shown
light: DIVMTQSPLSLPVTPGEPASISCQASESLVHSNRNTYLHWYLQKPGQSPQLLIYKVSNRFSGVPDRFSGSGSGTDFTLKISRVEAEDVGVYYCSQNTHVPPTFGQGTKVEIERTVAAPSVFIFPPSDEQLKSGTASVVCLLNNFYPREAKVQWKVDNALQSGNSQESVTEQDSKDSTYSLSSTLTLSKADYEKHKVYACEVTHQGLSSPVTKSFNRGEC
notes: He Ab; IgG1; mutation in one H chain only; also called GpH7-A5/GpH7-B14/GpL16-k0
B13: GpH7-A5/GpH7-B3 variant P329_10E/GpL16-k0 (antibody, human IgG1, kappa)
heavy 1: not shown
heavy 2: not shown
light: DIVMTQSPLSLPVTPGEPASISCQASESLVHSNRNTYLHWYLQKPGQSPQLLIYKVSNRFSGVPDRFSGSGSGTDFTLKISRVEAEDVGVYYCSQNTHVPPTFGQGTKVEIERTVAAPSVFIFPPSDEQLKSGTASVVCLLNNFYPREAKVQWKVDNALQSGNSQESVTEQDSKDSTYSLSSTLTLSKADYEKHKVYACEVTHQGLSSPVTKSFNRGEC
notes: He Ab; IgG1; mutation in one H chain only; also called GpH7-A5/GpH7-B15/GpL16-k0
B14: GpH7-A5/GpH7-B3 variant P329_11K/GpL16-k0 (antibody, human IgG1, kappa)
heavy 1: not shown
heavy 2: not shown
light: DIVMTQSPLSLPVTPGEPASISCQASESLVHSNRNTYLHWYLQKPGQSPQLLIYKVSNRFSGVPDRFSGSGSGTDFTLKISRVEAEDVGVYYCSQNTHVPPTFGQGTKVEIERTVAAPSVFIFPPSDEQLKSGTASVVCLLNNFYPREAKVQWKVDNALQSGNSQESVTEQDSKDSTYSLSSTLTLSKADYEKHKVYACEVTHQGLSSPVTKSFNRGEC
notes: He Ab; IgG1; mutation in one H chain only; also called GpH7-A5/GpH7-B13/GpL16-k0
B15: GpH7-A5/GpH7-B3 variant P329_12R/GpL16-k0 (antibody, human IgG1, kappa)
heavy 1: not shown
heavy 2: not shown
light: DIVMTQSPLSLPVTPGEPASISCQASESLVHSNRNTYLHWYLQKPGQSPQLLIYKVSNRFSGVPDRFSGSGSGTDFTLKISRVEAEDVGVYYCSQNTHVPPTFGQGTKVEIERTVAAPSVFIFPPSDEQLKSGTASVVCLLNNFYPREAKVQWKVDNALQSGNSQESVTEQDSKDSTYSLSSTLTLSKADYEKHKVYACEVTHQGLSSPVTKSFNRGEC
notes: He Ab; IgG1; mutation in one H chain only; also called GpH7-A5/GpH7-B12/GpL16-k0
B16: GpH7-A5/GpH7-B3 variant P329_13S/GpL16-k0 (antibody, human IgG1, kappa)
heavy 1: not shown
heavy 2: not shown
light: DIVMTQSPLSLPVTPGEPASISCQASESLVHSNRNTYLHWYLQKPGQSPQLLIYKVSNRFSGVPDRFSGSGSGTDFTLKISRVEAEDVGVYYCSQNTHVPPTFGQGTKVEIERTVAAPSVFIFPPSDEQLKSGTASVVCLLNNFYPREAKVQWKVDNALQSGNSQESVTEQDSKDSTYSLSSTLTLSKADYEKHKVYACEVTHQGLSSPVTKSFNRGEC
notes: as for B1
B17: GpH7-A5/GpH7-B3 variant P329_14T/GpL16-k0 (antibody, human IgG1, kappa)
heavy 1: not shown
heavy 2: not shown
light: DIVMTQSPLSLPVTPGEPASISCQASESLVHSNRNTYLHWYLQKPGQSPQLLIYKVSNRFSGVPDRFSGSGSGTDFTLKISRVEAEDVGVYYCSQNTHVPPTFGQGTKVEIERTVAAPSVFIFPPSDEQLKSGTASVVCLLNNFYPREAKVQWKVDNALQSGNSQESVTEQDSKDSTYSLSSTLTLSKADYEKHKVYACEVTHQGLSSPVTKSFNRGEC
notes: as for B1

How the values were obtained:
FcγRIIb = biological target: T1, FcγRIIb; experiment: SPR (Biacore), captured antibody, FcγR analyte; binding relative to GpH7-A5/GpH7-B3/GpL16-k0 = 100
FcγRIIa R [1] = biological target: T2, FcγRIIa R; experiment: as above
FcγRIIa R [2] = biological target: T2, FcγRIIa R; experiment: He/Con_2aR divided by He/Con_2b (FcγRIIa R over FcγRIIb); SPR (Biacore)

He/Con_2b (IIb binding) (FcγRIIb) [control=100]	He/Con_2aR (IIaR binding) (FcγRIIa R [1]) [control=100]	IIaR/IIb (He_2aR/2b) (FcγRIIa R [2]) [ratio]	Binder
26	42.2	1.63	B1
10.4	16.2	1.57	B2
19.1	26.1	1.37	B3
70.1	89	1.27	B4
69.1	92.1	1.33	B5
40.5	58.9	1.45	B6
38.5	53.8	1.4	B7
32.2	44.7	1.39	B8
29.1	42.7	1.47	B9
34.6	49.6	1.44	B10
29.1	42.8	1.47	B11
53.5	67.8	1.27	B12
52.7	64.8	1.23	B13
16.9	30.2	1.79	B14
17.6	29.3	1.66	B15
41	61.5	1.5	B16
37.9	57.3	1.51	B17
